Target: purified human CD117 ectodomain (R&D Systems #332-SR) (human) (UniProt P10721)
Assay: BLI (Octet Red96), IgG on anti-human Fc sensors, human CD117 ectodomain at 33.3 and 11 nM, 1:1 fit

B1: Antibody 61 (antibody, human IgG1, kappa, V domains shown)
VH: EVQLLESGGGLVQPGGSLRLSCAASGFTFSSYVMIWVRQAPGKGLEWVSSISGDSVTTYYADSVKGRFTISRDNSKNTLYLQMNSLRAEDTAVYYCAKGPPTYHTNYYYMDVWGKGTTVTVSS
VL: DIQMTQSPSSVSASVGDRVTITCRASQGISSWLAWYQQKPGKAPKLLIYAASSLQSGVPSRFSGSGSGTDFTLTISSLQPEDFATYYCQQTNSFPYTFGGGTKVEIKR
In the case of B1, the Kd is reported as 24.9 nM, the koff is reported as 0.00533 s⁻¹ and the kon is reported as 214000 M⁻¹ s⁻¹.

Reference: patent US20190144558A1
